# T1: human 4EHP (residues 45-234) for ITC (human, UniProt O60573 45-234)
# T1 chain: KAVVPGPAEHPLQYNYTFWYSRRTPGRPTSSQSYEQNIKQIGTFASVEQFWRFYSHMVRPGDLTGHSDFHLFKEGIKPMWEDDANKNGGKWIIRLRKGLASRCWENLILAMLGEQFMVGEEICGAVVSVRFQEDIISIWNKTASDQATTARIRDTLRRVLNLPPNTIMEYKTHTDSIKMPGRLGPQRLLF
# B1: human TRS UNE-T (residues 1-74) with C-terminal His tag (domain or fragment)
# chain: MFEEKASSPSGKMGGEEKPIGAGEEKQKEGGKKKNKEGSGDGGRAELNPWPEYIYTRLEMYNILKAEHDSILAE
# Assays:
# [1] = biological target: T1, human 4EHP (residues 45-234) for ITC; experiment: ITC; VP-ITC, 25 °C; TRS (1-74, 0.6 mM) in the syringe titrated against 4EHP (45-234, 0.035 mM); single binding site model
# [2] = biological target: T1, human 4EHP (residues 45-234) for ITC; experiment: ITC
binder,measurement,setting,value
B1,Kd,[1],2480 nM
same,stoichiometry N,[1],1
same,Ka,[2],403000 M⁻¹

# Reference: publication PMC6430810 (2019)
